Reference: IntAct's records for PubMed 11231575

Molecular target: arp3_bovin ACTR3 (UniProt P61157)

effect of a mutation on the interaction | Substance
disrupting interaction | Src substrate cortactin (Mus musculus), Q60598 D20G;D21A
disrupting interaction | Src substrate cortactin (Mus musculus), Q60598 W22A
